In patent publication US20180155451A1 (published 2018):

T1: FcγRIIa R (human FcγRIIa, allotype R, Arg at position 131), extracellular domain with C-terminal His tag (human, UniProt P12318 34-217)
T1 construct: extracellular domain; expressed in FreeStyle293 cells; analyte in Biacore; also called 2aR; FcgRIIa R
T1 sequence (looked up): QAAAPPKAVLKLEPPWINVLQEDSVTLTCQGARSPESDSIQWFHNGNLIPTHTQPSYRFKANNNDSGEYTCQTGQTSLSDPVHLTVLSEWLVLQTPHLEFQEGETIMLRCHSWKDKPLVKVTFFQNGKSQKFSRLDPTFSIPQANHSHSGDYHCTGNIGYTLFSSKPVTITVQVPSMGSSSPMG

T2: FcγRIIb extracellular domain with C-terminal His tag (human, UniProt P31994 43-217)
T2 construct: extracellular domain; also called FcgRIIb; 2b; not shown: His tag at the C terminus
T2 sequence (looked up): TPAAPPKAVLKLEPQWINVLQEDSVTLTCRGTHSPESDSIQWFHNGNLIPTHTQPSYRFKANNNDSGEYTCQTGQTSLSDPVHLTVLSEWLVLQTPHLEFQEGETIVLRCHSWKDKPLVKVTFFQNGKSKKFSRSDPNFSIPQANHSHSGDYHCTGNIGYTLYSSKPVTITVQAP

B1: GpH7-A5/GpH7-B3 variant Q295_06M/GpL16-k0 (antibody, human IgG1, kappa)
heavy 1: not shown
heavy 2: not shown
light: DIVMTQSPLSLPVTPGEPASISCQASESLVHSNRNTYLHWYLQKPGQSPQLLIYKVSNRFSGVPDRFSGSGSGTDFTLKISRVEAEDVGVYYCSQNTHVPPTFGQGTKVEIERTVAAPSVFIFPPSDEQLKSGTASVVCLLNNFYPREAKVQWKVDNALQSGNSQESVTEQDSKDSTYSLSSTLTLSKADYEKHKVYACEVTHQGLSSPVTKSFNRGEC
notes: heterodimerized antibody, mutation in one H chain only; also called He Ab
B2: GpH7-A5/GpH7-B3 variant Q295_10E/GpL16-k0 (antibody, human IgG1, kappa)
heavy 1: not shown
heavy 2: not shown
light: B1 light
notes: as for B1
B3: GpH7-A5/GpH7-B3 variant P331_07I/GpL16-k0 (antibody, human IgG1, kappa)
heavy 1: not shown
heavy 2: not shown
light: B1 light
notes: as for B1
B4: GpH7-A5/GpH7-B3 variant P331_08L/GpL16-k0 (antibody, human IgG1, kappa)
heavy 1: not shown
heavy 2: not shown
light: B1 light
notes: as for B1
B5: GpH7-A5/GpH7-B3 variant P331_14T/GpL16-k0 (antibody, human IgG1, kappa)
heavy 1: not shown
heavy 2: not shown
light: B1 light
notes: as for B1
B6: GpH7-A5/GpH7-B3 variant P331_06M/GpL16-k0 (antibody, human IgG1, kappa)
heavy 1: not shown
heavy 2: not shown
light: B1 light
notes: as for B1
B7: GpH7-A5/GpH7-B3 variant P331_10E/GpL16-k0 (antibody, human IgG1, kappa)
heavy 1: not shown
heavy 2: not shown
light: B1 light
notes: as for B1
B8: GpH7-A5/GpH7-B3 variant P331_09D/GpL16-k0 (antibody, human IgG1, kappa)
heavy 1: not shown
heavy 2: not shown
light: B1 light
notes: as for B1
B9: GpH7-A5/GpH7-B3 variant P331_18N/GpL16-k0 (antibody, human IgG1, kappa)
heavy 1: not shown
heavy 2: not shown
light: B1 light
notes: as for B1
B10: GpH7-A5/GpH7-B3 variant P331_13S/GpL16-k0 (antibody, human IgG1, kappa)
heavy 1: not shown
heavy 2: not shown
light: B1 light
notes: as for B1
B11: GpH7-A5/GpH7-B3 variant S239_05P/GpL16-k0 (antibody, human IgG1, kappa)
heavy 1: not shown
heavy 2: not shown
light: B1 light
notes: as for B1
B12: GpH7-A5/GpH7-B3 variant Q295_14T/GpL16-k0 (antibody, human IgG1, kappa)
heavy 1: not shown
heavy 2: not shown
light: B1 light
notes: position is EU numbering; also called He Ab
B13: GpH7-A5/GpH7-B3 variant S324_19Q/GpL16-k0 (antibody, human IgG1, kappa)
heavy 1: not shown
heavy 2: not shown
light: B1 light
notes: as for B12
B14: GpH7-A5/GpH7-B3 variant Y300_01G/GpL16-k0 (antibody, human IgG1, kappa)
heavy 1: not shown
heavy 2: not shown
light: B1 light
notes: as for B12
B15: GpH7-A5/GpH7-B3 variant Y300_13S/GpL16-k0 (antibody, human IgG1, kappa)
heavy 1: not shown
heavy 2: not shown
light: B1 light
notes: as for B12
B16: GpH7-A5/GpH7-B3 variant S298_07I/GpL16-k0 (antibody, human IgG1, kappa)
heavy 1: not shown
heavy 2: not shown
light: B1 light
notes: as for B12
B17: GpH7-A5/GpH7-B3 variant S298_16H/GpL16-k0 (antibody, human IgG1, kappa)
heavy 1: not shown
heavy 2: not shown
light: B1 light
notes: as for B12

target: T1, FcγRIIa R (human FcγRIIa, allotype R, …); test: SPR (Biacore), relative binding vs GpH7-A5/GpH7-B3/GpL16-k0
Experimental: Analysis of interaction between objective antibody and the FcγR was carried out using Biacore T100 (GE Healthcare). HBS-EP+ (GE Healthcare) was used as the running buffer, and the measurement temperature was set to 25° C. Chips produced by immobilizing the antigen peptide by the amine coupling method to a Series S Sencor Chip CM5 (GE Healthcare), or alternatively, chips produced by allowing preliminarily biotinylated antigen peptides to interact with and immobilize onto a Series S Sensor Chip SA (certified) (GE Healthcare) were used. Antibodies of interest were captured onto an antigen peptide-immobilized chip, and allowed to interact to each FcγR diluted with running buffer. To regenerate and repeatedly use the chip, the antibodies captured on the chip were washed off by reacting 10 mM glycine-HCl, pH 1.5.
The FcγR-binding activity of each antibody was assessed primarily using as an indicator the FcγR-binding activity and dissociation constant for FcγR.

B1 and B2 are the same in He/Con_2aR: 102 relative, control = 100 for the first, 102 relative, control = 100 for the second.

First: B3
Second: B4
The He/Con_2aR of the first is higher: 110 relative, control = 100 for the first, 102 relative, control = 100 for the second.

First: B5
Second: B6
The He/Con_2aR of the first is lower: 104 relative, control = 100 for the first, 106 relative, control = 100 for the second.

Going from B7 to B8, the He/Con_2aR falls from 113 relative, control = 100 to 102 relative, control = 100.

B9 and B10 are the same in He/Con_2aR: 105 relative, control = 100 for the first, 105 relative, control = 100 for the second.

B11 was tested, and the He/Con_2aR was 106 relative, control = 100.

target: T3, FcγRIIIa extracellular domain with C-terminal His tag (human, UniProt P08637 17-208); test: SPR (Biacore); ratio of He/Con_3a (FcγRIIIa) to He/Con_2b (FcγRIIb)
T3 construct: extracellular domain; also called FcgRIIIa; 3a; not shown: His tag at the C terminus
Procedure, shortened: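 Measurements were made at 25 °C with HBS-EP+ as running buffer. Each antibody sat on a chip bearing its antigen peptide, amine-coupled or streptavidin-bound, while FcγR was passed over; 10 mM glycine-HCl, pH 1.5 removed captured antibody.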

T3 sequence (P08637 17-208): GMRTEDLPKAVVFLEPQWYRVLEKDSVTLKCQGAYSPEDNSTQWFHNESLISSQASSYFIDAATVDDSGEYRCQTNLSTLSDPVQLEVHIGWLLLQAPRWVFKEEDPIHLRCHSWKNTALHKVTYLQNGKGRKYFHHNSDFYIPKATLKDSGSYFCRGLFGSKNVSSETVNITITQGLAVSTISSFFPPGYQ

First: B12
Second: B13
The “He_3a/2b (IIIa/IIb)” value of the first is higher: 1.72 ratio for the first, 1.33 ratio for the second.

First: B14
Second: B15
The “He_3a/2b (IIIa/IIb)” value of the first is higher: 1.69 ratio for the first, 1.37 ratio for the second.

First: B16
Second: B17
The “He_3a/2b (IIIa/IIb)” value of the first is higher: 1.37 ratio for the first, 1.2 ratio for the second.

target: T3, FcγRIIIa extracellular domain with …; test: SPR (Biacore), antibody captured, FcγR as analyte; He Ab binding / GpH7-A5/GpH7-B3/GpL16-k0 binding x 100

Compared with B12, B13 is lower in “He/Con_3a (IIIa binding)” value: 115 relative, control = 100 for the first, 88.5 relative, control = 100 for the second.

Compared with B14, B15 is lower in “He/Con_3a (IIIa binding)” value: 81.6 relative, control = 100 for the first, 73.9 relative, control = 100 for the second.

Going from B16 to B17, the “He/Con_3a (IIIa binding)” value falls from 96.4 relative, control = 100 to 76.5 relative, control = 100.

target: T2, FcγRIIb extracellular domain with …; test: as above

B12 and B13 are the same in “He/Con_2b (IIb binding)” value: 66.8 relative, control = 100 for the first, 66.8 relative, control = 100 for the second.

Compared with B14, B15 is higher in “He/Con_2b (IIb binding)” value: 48.4 relative, control = 100 for the first, 53.9 relative, control = 100 for the second.

First: B16
Second: B17
The “He/Con_2b (IIb binding)” value of the first is higher: 70.6 relative, control = 100 for the first, 63.5 relative, control = 100 for the second.
